Results: patent US20210163606A1 (ATYR PHARMA, published 2021)
Where a chain is given by its changes, count along the chain named. One block for each binder: values may come before it.

Legend:
[1] = molecular target: T1, human NRP2 variant 2 (hNRP2), untagged, on Expi293 cells (Human, UniProt O60462 23-931); test: flow cytometry on Expi293-hNRP2 clonal cells
T1 construct: Transcript NM_003872 / NP_003863.2; also called Expi293-hNRP2 clonal cells; Human NRP2a (version 2)
T1 sequence: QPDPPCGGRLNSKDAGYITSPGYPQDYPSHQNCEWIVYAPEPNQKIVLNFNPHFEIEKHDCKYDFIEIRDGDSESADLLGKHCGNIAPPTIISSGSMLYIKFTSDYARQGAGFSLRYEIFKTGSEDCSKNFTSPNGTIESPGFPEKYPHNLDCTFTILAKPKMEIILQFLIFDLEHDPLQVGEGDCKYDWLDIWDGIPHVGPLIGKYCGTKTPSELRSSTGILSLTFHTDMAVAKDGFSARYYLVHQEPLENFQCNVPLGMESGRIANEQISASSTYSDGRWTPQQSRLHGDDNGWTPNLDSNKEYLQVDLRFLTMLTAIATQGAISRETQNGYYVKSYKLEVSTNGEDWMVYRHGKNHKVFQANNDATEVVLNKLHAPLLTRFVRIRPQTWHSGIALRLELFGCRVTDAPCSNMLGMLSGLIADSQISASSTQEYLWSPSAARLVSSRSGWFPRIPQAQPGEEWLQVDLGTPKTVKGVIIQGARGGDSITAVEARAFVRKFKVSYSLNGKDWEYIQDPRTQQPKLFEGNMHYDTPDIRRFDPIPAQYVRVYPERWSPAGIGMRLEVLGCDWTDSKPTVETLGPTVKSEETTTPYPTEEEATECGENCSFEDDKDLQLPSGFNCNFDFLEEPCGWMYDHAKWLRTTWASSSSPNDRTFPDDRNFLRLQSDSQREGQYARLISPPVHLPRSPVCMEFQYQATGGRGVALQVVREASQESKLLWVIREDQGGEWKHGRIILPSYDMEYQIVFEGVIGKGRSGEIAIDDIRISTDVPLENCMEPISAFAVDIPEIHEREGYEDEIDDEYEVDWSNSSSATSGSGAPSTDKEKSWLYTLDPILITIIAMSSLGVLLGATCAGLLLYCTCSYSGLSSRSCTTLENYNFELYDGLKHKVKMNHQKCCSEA
Experimental: Expi293-hNRP2 clonal cells were collected by centrifugation at 300 g for 5 minutes, and washed twice by DPBS (with calcium and magnesium, ThermoFisher Cat #14040133). Washed cells were added to a 96-well V-bottom plate (ThermoFisher Cat #1424572) at 100,000 cells/well in […] of DPBS added with Zombie Violet viability stain (Biolegend Cat #423114, diluted at 1:500). From this step on, cells were protected from light. Cells were kept at room temperature for 10 min and pelleted down at 300 g for 5 minutes at 4° C. Supernatants containing Zombie Violet were discarded, and without washing, 30 uL of antibodies diluted in the flow wash buffer (FWB, DPBS plus 2% FBS and 0.1% sodium azide to inhibit receptor internalization) were added to the cells. For anti-NRP2 antibody staining on Expi293-hNRP2 clonal cells, in-house human anti-NRP2 antibodies were tested at final concentrations of 0.006-100 nM at 4-fold dilutions. […] Binding was allowed to proceed on ice for 40-60 minutes. Cells were then pelleted at 300 g for 5 minutes at 4° C., supernatants removed, and cells washed twice by adding 150 μL of FWB and centrifuging the cells again in the same conditions. To detect a-NRP2 binding on the cell surface, Cy3-conjugated goat anti-human IgG Fc (Jackson ImmunoResearch Cat #109165098) was added to the cells at a final concentration of 3 μg/mL in 30 μL of FWB. After 30-40 minutes of incubation on ice, cells were pelleted at 300 g for 5 minutes at 4° C. and supernatants removed, and the cells were washed twice as described previously. Cells were then resuspended in FWB before acquisition on the Cytoflex. Gains were set based on staining controls. Cells were collected with typically more than 10,000 events. Cells were then analyzed on FlowJo analysis software by excluding dead cells and gating singlets. The statistical analysis was performed using GraphPad Prism. A four-parameter variable-slope curve was fitted to the data ([agonist] vs. response) using non-linear regression, and the EC₅₀ and r2 for each curve was determined.
The EC₅₀ of four anti-NRP2 antibodies directed against different domains of NRP2, were measured for binding to Expi293-hNRP2 clonal cells (see Table E1 and FIG. 3).

[2] = molecular target: T2, Cynomolgus NRP2 (aa23-854) with C-terminal Fc-tag (cynomolgus monkey); test: SPR (ProteOn XPR36), antibody captured on anti-human Fab-kappa, cyno NRP2-Fc as analyte, bivalent analyte fit
T2 construct: range 23-854; sensorgrams fitted to a bivalent analyte model; also called Cynomolgus NRP2 antigen protein
Experimental: Anti-NRP2 antibody binding and affinity measurements. […] SPR experiments were conducted on a Bio-Rad ProteOn XPR36 Protein Interaction Array instrument. Biotinylated anti-human antibody (ThermoFisher Cat #7103302100) was immobilized on ProteOn NLC sensor chips. Anti-NRP2 antibodies were subsequently flowed over and captured by the anti-human antibody. Cynomolgus NRP2 antigen protein was flowed over the captured antibody at varying concentrations (150, 50, 16.67, 5.56, 1.85 nM). The sensor chip surface was regenerated between each analyte run to remove anti-NRP2 antibodies and NRP2 protein. Data was double referenced against a surface with no anti-NRP2 antibody captured (immobilized anti-human antibody only) and a buffer only blank. Affinity constants were derived by globally fitting sensograms to a bivalent analyte interaction model in the ProteOn manager software. For each anti-NRP2 antibody, data from the multiple NRP2 concentrations was fit as a single data set with dissociation rate constant (kd), association rate constant (kₐ) and Rₘₐₓ values as global parameters. The reported binding affinity is the equilibrium dissociation constant (KD) calculated from kd/kₐ. [0681] Running buffer: 50 mM HEPES, 300 mM NaCl, 5 mM CaCl₂, 0.005% Tween-20, pH 7.4 [0682] Immobilized antibody: CaptureSelect Human Fab-kappa Kinetics Biotin Conjugate, Thermo Fisher Cat #7103302100 [0683] Antigen: Cynomolgus NRP2 (aa23-854) with C-terminal Fc-tag [0684] Regeneration buffer: 10 mM glycine pH 2.0

[3] = molecular target: T3, cynomolgus monkey NRP2 on transfected Expi293 cells (cynomolgus monkey); test: flow cytometry on Cyno NRP2-transfected Expi293 cells
T3 construct: whole, on cells; Plasmid bought from Origene; transient transfection; also called Cyno NRP2
Experimental: Binding of a-NRP2 to cynomolgus monkey NRP2-transfected Expi293 cells. Cynomolgus monkey (cyno) NRP2-transfected Expi293 cells were collected by centrifugation at 300 g for 5 minutes, and washed twice by DPBS (with calcium and magnesium, ThermoFisher Cat #14040133).
Washed cells were added to a 96-well V-bottom plate (ThermoFisher Cat #1424572) at 100,000 cells/well in 50 μL of DPBS added with Zombie Violet viability stain (Biolegend Cat #423114, diluted at 1:500). From this step on, cells were protected from light. Cells were kept at room temperature for 10 min and pelleted down at 300 g for 5 minutes at 4° C. Supernatants containing Zombie Violet were discarded, and without washing, 30 uL of antibodies diluted in the flow wash buffer (FWB, DPBS plus 2% FBS and 0.1% sodium azide to inhibit receptor internalization) were added to the cells. For a-NRP2 staining on Cyno NRP2-transfected Expi293 cells, in-house human anti-NRP2 antibodies were tested at final concentrations of 0.006-100 nM at 4-fold dilutions. For each test, NRP2 over-expression on the cell surface was validated by a-NRP2 staining (10 μg/mL R&D #AF567 a-NRP2) in separate wells. Binding was allowed to proceed on ice for 40-60 minutes. Cells were then pelleted at 300 g for 5 minutes at 4° C., supernatants removed, and cells washed twice by adding 150 μL of FWB and centrifuging the cells again in the same conditions. To detect a-NRP2 binding on the cell surface, Cy3-conjugated goat anti-human IgG Fc or AF647-conjugated donkey anti-goat IgG (Jackson ImmunoResearch Cat #109165098 & 705605147) was added to the cells at a final concentration of 3 μg/mL in 30 μL of FWB. After 30-40 minutes of incubation on ice, cells were pelleted at 300 g for 5 minutes at 4° C. and supernatants removed, and the cells were washed twice as described previously. […] Cells were then analyzed on FlowJo analysis software by excluding dead cells and gating singlets.
The EC₅₀ of three anti-NRP2 antibodies, each against a distinct domain of NRP2, were measured for binding to Cyno NRP2-transfected Expi293 cells (see Table E2 and FIG. 4).

[4] = molecular target: T1, human NRP2 variant 2 (hNRP2), untagged, …; test: flow cytometry as described for Table E1 (Expi293-hNRP2 cells); the cells for this surrogate are not said separately

B1: aNRP2-10v13 (antibody, V domains shown)
VH: EVQLVQSGAEVKKPGATVKISCKVSGFNIKDYYVHWVQQAPGKGLEWMGRIDVHDDETKYAPKFQGRVTITADTSTDTAYMELSSLRSEDTAVYYCATPIYGAREAWFAYWGQGTLVTVSS
VL: DIQMTQSPSSLSASVGDRVTITCTASSSVSSSYLHWYQQKPGKAPKLLIYRTSNLASGVPSRFSGSGSGTDFTLTISSLQPEDFATYYCHQYYRSPPTFGGGTKVEIK
EC50 [1]: 0.65 nM

B2: aNRP2-14v9 (antibody, V domains shown)
VH: QLQLVESGGGVVQPGRSLRLSCTVSGFSLTSYGVHWVRQAPGKGLEWVGLIWSGGSTDYSPAFISRFTISEDNSKSTVYLQMNSLRAEDTAVYFCARNSYSSGYYAMDYWGQGTTVTVSS
VL: DIQLTQSPSFLSASVGDRVTITCKASQNVGHAVAWYQQKPGKAPKLLIYSASNRYTGVPSRFSGSGSGTEFTLTISSLQPEDFATYYCQQYSRYPPYTFGGGTKVEIK
Kd [2]: 0.017 nM | EC50 [1]: 1.2 nM | EC50 [3]: 2.8 nM

B4: aNRP2-11v7 (antibody, V domains shown)
VH: QVQLVQSGAEVKKPGASVKVSCKASGYTFTSFGISWVRQAPGQGLEWIGEIYPRSGNTYYNENFKGRATMTADKSTSTAYMELRSLRSDDTAVYYCARSSGYYGSTPFPYWGQGTLVTVSS
VL: DIQMTQSPSSLSASVGDRVTITCRASQDISNYLNWYQQKPGKAVKLLIYYTSRLHSGVPSRFSGSGSGTDYTFTISSLQPEDIATYYCQQGNTLPWTFGGGTKVEIK
notes: also called aNRP22-11v7
Kd [2]: 12 nM | EC50 [1]: 6.3 nM | EC50 [3]: 5.7 nM

Now from value to binder:

EC50 [1]: 47.5 nM
B3: aNRP2-14v10 (antibody, V domains shown)
VH: B2 VH
VL: B2 VL with H31T, Y91R

EC50 [4]: 1.58 nM
B5: aNRP2-28v2/4 (antibody, V domains shown)
VH: QSVKESEGGLFKPTDTLTLTCTVSGFSLSTYSISWVRQAPGNGLEWIGIIGDAGGIIYATWAKSRSTITRSTALNTVTLKMTGLTAADTATYFCARDGTAFDIWGPGTLVTVSS
VL: AYDMTQTPASVEVVVGGTVTIKCQASQSIYSKLGWYQQKPGQPPKLLIYRASTLASGVSSRFKGSGSGTEYTLTISGVQCDDAATYYCQQDYSYINVDNIFGGGTEVVVK
notes: Mouse surrogate antibody; also called aNRP2-28v4
